Assay results taken from PMC5080701, “TIS7 induces transcriptional cascade of methylosome components required for muscle differentiation”.

T1: GST-TIS7 (TPA Induced Sequence 7) (mouse, UniProt P19182 1-449)
T1 sequence: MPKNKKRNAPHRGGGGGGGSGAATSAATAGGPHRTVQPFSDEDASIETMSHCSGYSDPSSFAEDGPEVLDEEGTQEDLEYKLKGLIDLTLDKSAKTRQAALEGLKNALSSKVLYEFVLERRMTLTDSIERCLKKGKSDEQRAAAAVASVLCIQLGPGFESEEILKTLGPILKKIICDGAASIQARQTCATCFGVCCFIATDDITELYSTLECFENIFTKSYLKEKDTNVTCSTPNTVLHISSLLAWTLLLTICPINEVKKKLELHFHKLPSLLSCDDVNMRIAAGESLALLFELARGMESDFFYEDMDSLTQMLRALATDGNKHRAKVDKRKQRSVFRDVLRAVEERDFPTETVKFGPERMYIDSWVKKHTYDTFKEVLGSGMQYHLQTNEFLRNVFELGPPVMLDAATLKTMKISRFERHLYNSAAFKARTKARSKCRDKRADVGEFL


What was measured:
[1] = biological target: T1, GST-TIS7 (TPA Induced Sequence 7); test: EMSA; blocked by 20-fold excess of unlabelled oligonucleotide; supershifted by TIS7 antibody; EMSA: 1 ug probe, 10 min, 5% native PAGE (50 mM Tris pH 7.5, 0.38 M glycine, 2 mM EDTA; run in TBE), binding buffer not stated; SPR: Biacore X100, SA chip, oligos annealed in 30 mM Na3PO4, 200 mM NaCl, 1 mM DTT pH 7.2, protein dialyzed in 50 mM Tris pH 7.4, 150 mM NaCl; running buffer and temperature not stated; conditions: protein: recombinant; tags: N-terminal GST; blunt
[2] = biological target: T1, GST-TIS7 (TPA Induced Sequence 7); test: SPR; Kd value printed only in Fig. 4d; 10-fold difference in Kd between native and scrambled sequence; EMSA: 1 ug probe, 10 min, 5% native PAGE (50 mM Tris pH 7.5, 0.38 M glycine, 2 mM EDTA; run in TBE), binding buffer not stated; SPR: Biacore X100, SA chip, oligos annealed in 30 mM Na3PO4, 200 mM NaCl, 1 mM DTT pH 7.2, protein dialyzed in 50 mM Tris pH 7.4, 150 mM NaCl; running buffer and temperature not stated; conditions: protein: recombinant; tags: N-terminal GST; label: 5'-biotin on sense strand; blunt

Binder | binding result [1] | binding result [2]
ICln promoter minimal essential region (-154/-113), EMSA probe (dsDNA) DNA 1: TAGAATGTCTCATCTCTATGGTCGACGGCGTTCAGATTCCG DNA 2: CGGAATCTGAACGCCGTCGACCATAGAGATGAGACATTCTA | binds | 
ICln promoter minimal essential region (-154/-113), SPR (dsDNA) DNA 1: TAGAATGTCTCATCTCTATGGTCGACGGCGTTCAGATTCCG DNA 2: CGGAATCTGAACGCCGTCGACCATAGAGATGAGACATTCTA |  | binds
